Laboratory results reported in patent publication US20220348623A1 (Biogen, published 2022).

Target: T1, AspN-treated GDF11 (human, UniProt O95390 60-114; O95390 122-407, N-linked glycan at Asn-94, biotinylated through the glycan (Octet))
T1 construct: Full length GDF11 (ACE378) cleaved with endoproteinase AspN only; Glycopeptide 60-114 stays non-covalently associated with fragment 122-407, about 100 kDa by SEC; Minor fragments 60-117, 128-407, 133-407 and 25-114/117 were also detected; also called AspN digested GDF11; GDF11 Asp-N biotin sample
T1 sequence (peptide): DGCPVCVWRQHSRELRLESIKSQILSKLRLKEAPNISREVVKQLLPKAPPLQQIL
T1 sequence: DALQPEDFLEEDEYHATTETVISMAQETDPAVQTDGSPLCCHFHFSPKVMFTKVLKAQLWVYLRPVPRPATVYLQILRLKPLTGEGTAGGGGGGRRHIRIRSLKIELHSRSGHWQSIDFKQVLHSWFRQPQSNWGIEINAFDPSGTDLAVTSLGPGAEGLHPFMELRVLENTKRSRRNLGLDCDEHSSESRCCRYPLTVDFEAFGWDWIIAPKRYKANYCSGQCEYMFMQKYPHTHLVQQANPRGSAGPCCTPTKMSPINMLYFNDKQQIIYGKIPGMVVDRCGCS
Assay: Octet, biotinylated GDF11 sample captured on Streptavidin sensor, receptor-Fc in solution
Description: Following this treatment, GDF11 peptide 60-112/114 was in the supernatant and the rest of the protein precipitated and was in the pellet fraction. The specificity of labeling of GDF11 with biotin hydrazide was confirmed by Western blotting using Streptavidin Horseradish peroxidase for detection. Only full length GDF11 and glycopeptide 60-114 were detected and not the major fragments 122-407 or 299-407. Octet Binding Studies. Binding characteristics of the biotinylated samples were evaluated by Octet on an Octet RED System (FortéBio™, Menlo Park, Calif.) using Dip and Read™ Streptavidin (SA) Biosensors (FortéBio™). Samples were prepared in 5 mM NaH₂PO₄ pH 6.0, 150 mM NaCl, 0.005% Tween-20. […] The ability of biotinylated AspN/furin GDF11 to bind Type I and II receptors was also assessed by Octet using the same loading conditions, followed by treatment of the receptors at 10 μg/mL. […] The tips were washed for 1 min and dissociation monitored for 30 min in the presence of 20 μM free biotin. For secondary binding studies with the receptors, the tips were loaded with biotinylated GDF11 and controls, and washed as described above, then the receptor samples were loaded for 15 min and dissociation monitored for 5 min.
The binding characteristics of the GDF11 peptide 60-112/114 for mature GDF11 residues 299-407 and for AspN fragment residues 122-407 were assessed using an Octet Red system. […]

binding result: no binding
B1: Recombinant Human Activin RIB (ALK-4)-Fc chimeric protein (Fc fusion, UniProt P36896 24-126, looked up)
chain: SGPRGVQALLCACTSCLQANYTCETDGACMVSIFNLDGMEHHVRTCIPKVELVPAGKPFYCLSSEDLRNTHCCYTDYCNRIDLRVPSGHLKEPEHPSMWGPVE
notes: Bought from R&D systems; also called Activin RIB-Fc; Type I receptor; Fc part of the bought chimera not given
